From the supplement of paper PMC9170038

Tested on: MS2 coat protein
Assay: apparent KD of MS2 coat protein; higher = weaker reporter binding
Details: Eterna round: R107
Method in brief: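 In 100 mM Tris-HCl pH 7.5 with 80 mM KCl and 4 mM MgCl2, and without or with constant ligand, SNAP-549-labelled MS2 coat protein was titrated in twofold steps from 0.7 or 1.5 nM to 3 µM. Per-step times went from 0.8–1.5 h down to 10–20 min. The RNA switches were transcribed on-chip from Illumina sequencing clusters, and apparent KD is the per-design median of normalised cluster binding-curve fits.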

[1] = input ligand: theophylline 20 uM
[2] = input ligand: tryptophan 2.4 mM
[3] = input ligand: theophylline 2 mM

Row | Sequence | apparent KD of MS2 coat protein (input ligand: arginine 13.2 mM) [nM] | apparent KD of MS2 coat protein [1] [nM] | apparent KD of MS2 coat protein [2] [nM] | apparent KD of MS2 coat protein [3] [nM] | apparent KD of MS2 coat protein (input ligand: none) [nM]
1 | UAUACAUGAGGAUCACCCAUGUGCCAUGAUACCAGACAUGAAAAUGUCCCUUGGCAGCAUGGGAAAUGUAUAGCGGGAAACCCGA [Slatina] | 52.7 | 201 | 60.8 | – | –
2 | UAUAUAUAUCACUAACUGUUGUGGACGUCUCGAGGACCGGUACGGCCGCCACUCGGGCGGCCUCACAUGAGGAUCACCCAUGUCC [XTryp A #4] | 92.9 | 192 | – | 149 | –
3 | UAUAUAUUGAUGGAUACCAGCAGAGAAAACGUUUAUCCUAACAUGAGGAUCACCCAUGUAUGCCCUUGGCAGCUGUUGAUAUAUA [8.K] | 21.7 | 28.7 | 18.4 | – | –
4 | UAUCCACAUGAGGAUCACCCAUGUAGGGAAGGAGCGGUGGUUGCACCAGGUAGGUCGCCUUGCUGAGGAUAACCGGUGGAAUCGU [Exclusion - Arginine A (Freestyle 28)] | 32.8 | 26.9 | 31.1 | 33.6 | 18.8
5 | UAUGAGCGCACGGCCGCCACUGUCUUCAUCUGUUUGUCUACAUGAGGAUCACCCAUGUUGGUUUACAGGACCGGGUGCAACUAUG [SSTryp B #10] | 26.9 | 38.1 | – | 33.8 | –
6 | UCACAUGAGGAUCACCCAUGUACAACUGAAGGAGCGAGACAAAACUCAGGUAGGUCGCAGAAUAAACAAUAGCAUACGACAUGGG [Exclusion Arginine A GF 19] | 44.6 | 43.1 | 27.7 | 26.3 | 31
7 | UCACGACGCAACGUGAAAUAAUAAACAGAAGGAGCGAGGAAAGCCUCAGGUAGGUCGCUGACAUGAGGAUCACCCAUGUAUUACA [Same State Arginine A GF5] | 27.1 | 41.2 | 32.2 | 35.1 | 31.5
8 | UCCACAUGAGGAUCACCCAUGUAAUCAGAUACCAGUGACGAAAGUCACCCUUGGCAGCUGAUUACUUUAGUUCGAGGGUGUUUGA [EThA NP+V+V2 #4 Same Structure] | 84.5 | 148 | 79.5 | – | –
9 | UCGACAGUGAACGAUACCAGCGUCACGUGGCCGGUGGUCACAUGAGGAUCACCCAUGUAACGCCCUUGGCAGCGUGCACGUAUCA [Latedirius] | 20.5 | 46.3 | 20.5 | – | –
10 | UCGAUGGUAUCUGAUACCAGUAGCGUGCGUUACAUGAGGAUCACCCAUGUGCCUAUACUUUACCCUUGGCAGCAGUGGAUUCGAU [theeternabot_sameState_MS2_Theo_B_22] | 57.1 | 144 | 241 | – | –
11 | UCGCCCAGGAAGGAUUCCUGGGAUAUGGAAGGAGCGCUGAUGCCAGCAGGUAGGUCGCCAACGGACAUGAGGAUCACCCAUGUAC [Same State - Arginine A (Freestyle 8)] | 14.5 | 22.7 | 21.2 | 26.6 | 19.9
12 | UCGCGAUAGAGAAGGAGCGUCAACACCACAGAACAUGAGGAUCACCCAUGUGUUACUUUUAGACAGGUAGGUCGCUCUAGCGCUU [JR_Nu_ExcArginiB_Sub028] | 14 | 18.3 | 13.3 | 16.4 | 12.2
13 | UCGCUAUUGUCGGCCGCCACUACUGCAGGGAAACAAAUAUAACCACAUGAGGAUCACCCAUGUCUUAGGACCGGGACACCCAUCU [theeternabot_sameState_MS2_Trp_B_2] | 54.8 | 126 | – | 119 | –
14 | UCGCUCUGGGUGGGAUCCGGAGAUGUGGAAGGAGCGCUGGUAACAGCAGGUAGGUCGCCAACGGACAUGAGGAUCACCCAUGUAC [Same State - Arginine A (Freestyle 17)] | 25.2 | 40 | 26.7 | 44.2 | 37.3
15 | UCGGAUGCGGCGGCCGCCACUCGCGGAUAACGAUAGCUUAACAUGAGGAUCACCCAUGUGUCAUGGAGGACCGGGCCCAUACCGU [pbpmullin] | 18.8 | 36.4 | – | 26.3 | –
16 | UCGUGUGUUUCGGAUACCAGUGAAAUCGAUACAUGAGGAUCACCCAUGUGAGAGGAUGUACACCCUUGGCAGCUGUCUGUAUCUG [asczmullin] | 14.7 | 16.8 | 12.1 | – | –
17 | UCUUCGUUGGCGUCACAAUUCAUGCAAUGCCGAGGACCGGUACGGCCGCCACUCGGACUAAUACAUGAGGAUCACCCAUGUCGUG [theeternabot_exclusion_MS2_Trp_A_5] | 37.9 | 111 | – | 219 | –
18 | UCUUUCUAUGUAGAUACCAGCAUGUUAUAUUUCUAAUGACAUGAGGAUCACCCAUGUAAAUGCCCUUGGCAGCUACAUUUUCUUU [SSTHB #4] | 21.6 | 22.3 | 23.7 | – | –
19 | UGAACAUGAGGAUCACCCAUGUAGAGGGAAGGAGCGUCGAAGAAGACAGGUAGGUCGCCCAGAAAGAAAUCCUCAUGGAUAAGAA [Same State Arginine A GF2] | 86.2 | 152 | 69 | 122 | 54.4
20 | UGACAUUGCUCAGAUACCAGACAUGAGCAUCAGCCAUGUGCCAACAAGUACAAAAUAAAUGUCCCUUGGCAGCUGAGCAAUGUCU [TheoBX 23 #MS2Left #AlternativeMS2 #Theo22] | 14.1 | 16 | 12.3 | 153 | 10.9
21 | UGACAUUGCUCAGAUACCAGACAUGAGGAUCACCCAUGUACCAAGAAAACGUACAUAAAUGUCCCUUGGCAGCUGAGCAAUGUCU [TheoBX 10 #MS2Left #Theo2] | 175 | 535 | 531 | – | –
22 | UGACAUUGCUCAGAUACCAGACAUGAGGAUCACCCAUGUACCAAGAGUACAAAUUAAAAUGUCCCUUGGCAGCUGAGCAAUGUCU [TheoBX 7 #MS2Left #Theo2] | 25.4 | 37.8 | 19.3 | – | –
23 | UGACAUUGCUCAGAUACCAGACAUGAGGAUCACCCAUGUGCCAAAUAAACGUACAUAAAUGUCCCUUGGCAGCUGAGCAAUGUCU [TheoBX 11 #MS2Left #Theo2] | 46.8 | 87.5 | 59.1 | – | –
24 | UGACAUUGCUGCGAUACCAGACAUGAGGAUCACCCAUGUACCAAGAAAACGUACAUAAAUGUCCCUUGGCAGCGCAGCAAUGUCU [MAT - Exclusion Theophlline B - Mod of Eli - D25] | 170 | 593 | 806 | – | –
25 | UGAGAACAUGUCUUUAAGUUUACCUCUGAUACCAGAUUGAAAGGCAUCCCUUGGCAGCAGCAUACAUGAGGAUCACCCAUGUCCU [theeternabot_exclusion_MS2_Theo_A_12] | 64.4 | 119 | 88.9 | – | –
26 | UGAGUUCGCUGAUGGGCUACGUCAGGUGAUACCAGCCACUCCCGCGGCCCUUGGCAGCACAUGAGGAUCACCCAUGUAGAGCUUG [Lazaceonus] | 17.9 | 20.4 | 14.1 | 254 | 15.7
27 | UGAUCCUGCAGGGAUACCAGCGCCGCUAGAUAACUAUGCACAUGAGGAUCACCCAUGUAACGCCCUUGGCAGCCCAGCUAAAGGG [Same State Theophylline B GF22] | 23.1 | 60.1 | 48.1 | 31.3 | 58.7
28 | UGAUGGUACGGAAGGAGCGUGUAAGAACAAGAACAUGAGGAUCACCCAUGUAUUAAUUUAACACAGGUAGGUCGCCGUGUUAUUG [11.H] | 31.9 | 35.8 | 16 | 54.7 | 29.2
